Data from patent US20220363770A1 (Amgen, published 2022).
Numbering of substitutions follows the chain as printed.

T1: human PAC1 receptor (human, UniProt P41586 24-468)
T1 sequence: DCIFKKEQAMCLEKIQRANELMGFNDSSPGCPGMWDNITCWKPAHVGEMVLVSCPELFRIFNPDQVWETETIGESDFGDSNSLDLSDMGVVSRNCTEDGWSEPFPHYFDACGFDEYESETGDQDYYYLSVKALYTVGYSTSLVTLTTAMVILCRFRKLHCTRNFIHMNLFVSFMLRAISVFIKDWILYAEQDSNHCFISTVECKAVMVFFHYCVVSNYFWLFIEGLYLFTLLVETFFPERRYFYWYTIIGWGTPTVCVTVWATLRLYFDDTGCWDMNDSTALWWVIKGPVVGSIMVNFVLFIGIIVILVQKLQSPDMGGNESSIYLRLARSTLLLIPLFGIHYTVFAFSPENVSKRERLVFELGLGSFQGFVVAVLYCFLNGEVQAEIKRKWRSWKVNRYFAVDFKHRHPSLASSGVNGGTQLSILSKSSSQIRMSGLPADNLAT

B1: iPS:454851 (bispecific antibody, human IgG1, kappa, lambda, N297G)
light 1: QSVLTQPPSVSAAPGQKVTISCSGSRSNIGIKAVSWYQQLPGTAPKLLIYDNNKRPSGIPDRFSGSKSGTSATLGITGLQTGDEADYYCGTWDSRLSAVVFGGGTKLTVLGQPKAAPSVTLFPPSSEELQANKATLVCLISDFYPGAVTVAWKADSSPVKAGVETTTPSKQSNNKYAAKSYLSLTPEQWKSHRSYSCQVTHEGSTVEKTVAPTECS
heavy 1: QVQLVESGGGVVQPGRSLRLSCAASGFTFSSFGMHWVRQAPGKGLEWVAVISFDGSIKYSVDSVKGRFTISRDNSKNTLFLQMNSLRAEDTAVYYCARDRLNYYESSGYYHYKYYGMAVWGQGTTVTVSSASTKGPSVFPLAPSSKSTSGGTAALGCLVKDYFPEPVTVSWNSGALTSGVHTFPAVLQSSGLYSLESVVTVPSSSLGTQTYICNVNHKPSNTKVDKKVEPKSCDKTHTCPPCPAPELLGGPSVFLFPPKPKDTLMISRTPEVTCVVVDVSHEDPEVKFNWYVDGVEVHNAKTKPCEEQYGSTYRCVSVLTVLHQDWLNGKEYKCKVSNKALPAPIEKTISKAKGQPREPQVYTLPPSRKKMTKNQVSLTCLVKGFYPSDIAVEWESNGQPENNYKTTPPVLKSDGSFFLYSKLTVDKSRWQQGNVFSCSVMHEALHNHYTQKSLSLSPGK
light 2: EIVLTQSPATLSLSPGERATLSCRASKSVGWSLHWYQQKPGQAPRLLIKYASQSLSGIPARFSGSGSGTDFTLTISSLEPEDFAVYYCHQSSRLPFTFGPGTKVDIKRTVAAPSVFIFPPSDEQLKSGTASVVCLLNNFYPREAKVQWKVDNALQSGNSQESVTEQDSKDSTYSLESTLTLSKADYEKHKVYACEVTHQGLSSPVTKSFNRGEC
heavy 2: not shown
B2: iPS:454863 (bispecific antibody, human IgG1, kappa, lambda, N297G)
light 1: B1 light 1 with R26S, I31N, K32N, A33Y, A72T
heavy 1: B1 heavy 1 with E105R, S107F, H111G, K113H
light 2: B1 light 2 with W31Q
heavy 2: not shown
B3: iPS:454869 (bispecific antibody, human IgG1, kappa, lambda, N297G)
light 1: B1 light 1 with R26S, I31N, K32N, A33Y, A72T
heavy 1: B1 heavy 1 with E105R, S107F, H111G, K113H
light 2: B1 light 2 with W31Q
heavy 2: not shown
B4: iPS:454853 (bispecific antibody, human IgG1, kappa, lambda, N297G)
light 1: B1 light 1
heavy 1: B1 heavy 1
light 2: B1 light 2
heavy 2: not shown
B5: iPS:454867 (bispecific antibody, human IgG1, kappa, lambda, N297G)
light 1: B1 light 1 with R26S, I31N, K32N, A33Y, A72T
heavy 1: B1 heavy 1 with E105R, S107F, H111G, K113H
light 2: B1 light 2
heavy 2: not shown
B6: iPS:454875 (bispecific antibody, human IgG1, kappa, lambda, N297G)
light 1: B1 light 1 with R26S, I31N, K32N, A33Y, A72T
heavy 1: B1 heavy 1 with E105R, S107F, H111G, K113H
light 2: EIVLTQSPATLSLSPGERATLSCRASRAVSNLHWYQQKPGQAPRLLIKYASQSLSGIPARFSGSGSGTDFTLTISSLEPEDFAVYYCHQSSYLPFTFGPGTKVDIKRTVAAPSVFIFPPSDEQLKSGTASVVCLLNNFYPREAKVQWKVDNALQSGNSQESVTEQDSKDSTYSLESTLTLSKADYEKHKVYACEVTHQGLSSPVTKSFNRGEC
heavy 2: not shown
B7: iPS:454877 (bispecific antibody, human IgG1, kappa, lambda, N297G)
light 1: B1 light 1 with R26S, I31N, K32N, A33Y, A72T
heavy 1: B1 heavy 1 with E105R, S107F, H111G, K113H
light 2: B1 light 2 with W31R
heavy 2: not shown
B8: iPS:454879 (bispecific antibody, human IgG1, kappa, lambda, N297G)
light 1: B1 light 1 with R26S, I31N, K32N, A33Y, A72T
heavy 1: B1 heavy 1 with E105R, S107F, H111G, K113H
light 2: B1 light 2 with W31R
heavy 2: not shown
B9: iPS:454889 (bispecific antibody, human IgG1, kappa, lambda, N297G)
light 1: B1 light 1 with R26S, I31N, K32N, A33Y, A72T
heavy 1: B1 heavy 1 with E105R, S107F, H111G, K113H
light 2: B1 light 2 with W31R
heavy 2: not shown
B10: iPS:454865 (bispecific antibody, human IgG1, kappa, lambda, N297G)
light 1: B1 light 1 with R26S, I31N, K32N, A33Y, A72T
heavy 1: B1 heavy 1 with E105R, S107F, H111G, K113H
light 2: B1 light 2 with W31Q
heavy 2: not shown
B11: iPS:454883 (bispecific antibody, human IgG1, kappa, lambda, N297G)
light 1: B1 light 1 with R26S, I31N, K32N, A33Y, A72T
heavy 1: B1 heavy 1 with E105R, S107F, H111G, K113H
light 2: B1 light 2 with W31R
heavy 2: not shown
B12: iPS:454861 (bispecific antibody, human IgG1, kappa, lambda, N297G)
light 1: B1 light 1 with R26S, I31N, K32N, A33Y, A72T
heavy 1: B1 heavy 1 with E105R, S107F, H111G, K113H
light 2: B1 light 2 with K27R, W31L, S32A, R93F
heavy 2: not shown
B13: iPS:454855 (bispecific antibody, human IgG1, kappa, lambda, N297G)
light 1: B1 light 1
heavy 1: B1 heavy 1
light 2: B1 light 2 with W31Y
heavy 2: not shown
B14: iPS:454885 (bispecific antibody, human IgG1, kappa, lambda, N297G)
light 1: B1 light 1 with R26S, I31N, K32N, A33Y, A72T
heavy 1: B1 heavy 1 with E105R, S107F, H111G, K113H
light 2: B1 light 2 with W31R
heavy 2: not shown
B15: iPS:454887 (bispecific antibody, human IgG1, kappa, lambda, N297G)
light 1: B1 light 1 with R26S, I31N, K32N, A33Y, A72T
heavy 1: B1 heavy 1 with E105R, S107F, H111G, K113H
light 2: B1 light 2 with W31R
heavy 2: not shown
B16: iPS:454871 (bispecific antibody, human IgG1, kappa, lambda, N297G)
light 1: B1 light 1 with R26S, I31N, K32N, A33Y, A72T
heavy 1: B1 heavy 1 with E105R, S107F, H111G, K113H
light 2: B1 light 2 with W31Q
heavy 2: not shown
B17: iPS:454859 (bispecific antibody, human IgG1, kappa, lambda, N297G)
light 1: B1 light 1 with R26S, I31N, K32N, A33Y, A72T
heavy 1: B1 heavy 1 with E105R, S107F, H111G, K113H
light 2: B1 light 2 with S28A, G30W, W31H, S32N, R93M
heavy 2: not shown
B18: iPS:454873 (bispecific antibody, human IgG1, kappa, lambda, N297G)
light 1: B1 light 1 with R26S, I31N, K32N, A33Y, A72T
heavy 1: B1 heavy 1 with E105R, S107F, H111G, K113H
light 2: B1 light 2 with S28A, W31F, R93F
heavy 2: not shown
B19: iPS:454881 (bispecific antibody, human IgG1, kappa, lambda, N297G)
light 1: B1 light 1 with R26S, I31N, K32N, A33Y, A72T
heavy 1: B1 heavy 1 with E105R, S107F, H111G, K113H
light 2: B1 light 2 with W31R
heavy 2: not shown
B20: iPS:454891 (bispecific antibody, human IgG1, kappa, lambda, N297G)
light 1: B1 light 1 with R26S, I31N, K32N, A33Y, A72T
heavy 1: B1 heavy 1 with E105R, S107F, H111G, K113H
light 2: B1 light 2 with K27Q, W31R
heavy 2: not shown
B21: iPS:454857 (bispecific antibody, human IgG1, kappa, lambda, N297G)
light 1: B1 light 1 with R26S, I31N, K32N, A33Y, A72T
heavy 1: B1 heavy 1 with E105R, S107F, H111G, K113H
light 2: B1 light 2 with W31Q
heavy 2: not shown
B22: iPS:454893 (bispecific antibody, human IgG1, kappa, lambda, N297G)
light 1: B1 light 1 with R26S, I31N, K32N, A33Y, A72T
heavy 1: B1 heavy 1 with E105R, S107F, H111G, K113H
light 2: B1 light 2 with K27Q, W31R
heavy 2: not shown

The binders below were run against T1, human PAC1 receptor (assay: cell-based or functional assay).

Fold-improvement over 29G4v22 Ab	IC50	Binder
7.1 fold	0.76 nM	B1
4.5 fold	1.4 nM	B2
5.8 fold	1.1 nM	B3
5.8 fold	0.93 nM	B4
6.5 fold	0.98 nM	B5
1.9 fold	3 nM	B6
7.2 fold	0.8 nM	B7
6.7 fold	0.86 nM	B8
4.9 fold	1.31 nM	B9
3.9 fold	1.63 nM	B10
9 fold	0.64 nM	B11
4.8 fold	1.34 nM	B12
6.6 fold	0.81 nM	B13
10.5 fold	0.61 nM	B14
9.3 fold	0.69 nM	B15
3.3 fold	1.74 nM	B16
3.3 fold	1.91 nM	B17
4.4 fold	1.32 nM	B18
10.9 fold	0.53 nM	B19
9.5 fold	0.68 nM	B20
11.2 fold	0.57 nM	B21
7.4 fold	0.87 nM	B22

Each binder was assayed against human CGRP receptor (human, UniProt Q16602 23-461; O60894 27-148) (assay: cell-based or functional assay).
Chain of human CGRP receptor (Q16602 23-461 limits assumed, chain 1 of 2): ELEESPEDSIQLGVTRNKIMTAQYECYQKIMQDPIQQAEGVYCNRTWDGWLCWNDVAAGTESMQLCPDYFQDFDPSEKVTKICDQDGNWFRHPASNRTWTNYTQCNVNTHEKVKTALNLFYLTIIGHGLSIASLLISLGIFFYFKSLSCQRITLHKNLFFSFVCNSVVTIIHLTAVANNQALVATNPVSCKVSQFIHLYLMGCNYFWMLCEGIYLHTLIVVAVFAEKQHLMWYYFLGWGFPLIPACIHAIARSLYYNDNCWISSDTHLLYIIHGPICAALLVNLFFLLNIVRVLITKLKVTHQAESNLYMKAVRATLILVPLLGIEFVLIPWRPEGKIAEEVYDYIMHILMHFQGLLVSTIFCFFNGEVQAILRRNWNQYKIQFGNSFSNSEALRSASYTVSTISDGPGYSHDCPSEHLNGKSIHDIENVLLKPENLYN
Chain of human CGRP receptor (O60894 27-148 limits assumed, chain 2 of 2): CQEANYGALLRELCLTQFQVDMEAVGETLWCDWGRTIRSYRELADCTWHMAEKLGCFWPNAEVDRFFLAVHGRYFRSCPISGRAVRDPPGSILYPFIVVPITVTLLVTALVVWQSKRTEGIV

Fold-improvement over 4E4 Ab	IC50	Binder
1.8 fold	0.37 nM	B1
0.4 fold	1.5 nM	B2
0.4 fold	1.65 nM	B3
1.4 fold	0.47 nM	B4
0.4 fold	1.55 nM	B5
0.3 fold	1.7 nM	B6
0.3 fold	1.49 nM	B7
0.3 fold	1.37 nM	B8
0.5 fold	1.1 nM	B9
0.4 fold	1.59 nM	B10
0.5 fold	1.03 nM	B11
0.4 fold	1.54 nM	B12
1.4 fold	0.46 nM	B13
0.5 fold	1.16 nM	B14
0.3 fold	1.86 nM	B15
0.2 fold	2.3 nM	B16
0.4 fold	1.5 nM	B17
0.2 fold	2.13 nM	B18
0.5 fold	0.93 nM	B19
0.6 fold	0.9 nM	B20
0.5 fold	1.36 nM	B21
0.4 fold	1.35 nM	B22
